This is an account of results in patent US20230357341A1.

Test [1] addresses T1, mouse EPOR expressed on Ba/F3 cells (BaF3/mouse EPOR) (mouse) (UniProt P14753).
T1 sequence: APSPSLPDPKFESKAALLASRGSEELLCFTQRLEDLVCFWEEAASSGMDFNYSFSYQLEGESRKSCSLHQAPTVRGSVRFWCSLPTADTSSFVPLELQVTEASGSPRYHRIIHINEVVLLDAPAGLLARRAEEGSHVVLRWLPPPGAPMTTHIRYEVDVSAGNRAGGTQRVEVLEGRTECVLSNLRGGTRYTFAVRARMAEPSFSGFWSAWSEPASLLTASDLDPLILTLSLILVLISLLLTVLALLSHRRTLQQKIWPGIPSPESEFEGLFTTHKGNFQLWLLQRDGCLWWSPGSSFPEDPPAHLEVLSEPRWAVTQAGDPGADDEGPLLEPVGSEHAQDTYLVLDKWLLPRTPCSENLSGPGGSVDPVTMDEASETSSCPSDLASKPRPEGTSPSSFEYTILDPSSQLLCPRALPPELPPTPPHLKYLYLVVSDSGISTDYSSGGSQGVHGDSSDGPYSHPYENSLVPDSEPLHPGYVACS

For test [2], the target named is T2, cat EPOR expressed on Ba/F3 cells (BaF3/cat EPOR) (cat).
T2 sequence: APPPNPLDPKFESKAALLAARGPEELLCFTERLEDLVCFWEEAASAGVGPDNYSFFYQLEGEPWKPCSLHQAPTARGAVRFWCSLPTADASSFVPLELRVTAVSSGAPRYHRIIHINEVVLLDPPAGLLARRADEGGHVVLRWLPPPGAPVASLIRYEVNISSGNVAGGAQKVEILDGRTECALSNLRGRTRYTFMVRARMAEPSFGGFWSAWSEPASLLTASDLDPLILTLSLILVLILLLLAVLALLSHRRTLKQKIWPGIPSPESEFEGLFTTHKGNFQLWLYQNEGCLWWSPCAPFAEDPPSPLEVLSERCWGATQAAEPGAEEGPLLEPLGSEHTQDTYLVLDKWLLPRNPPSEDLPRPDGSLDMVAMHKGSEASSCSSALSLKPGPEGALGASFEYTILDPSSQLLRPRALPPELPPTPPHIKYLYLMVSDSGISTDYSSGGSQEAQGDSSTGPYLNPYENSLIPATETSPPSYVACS

For the molecule “wild-type cat EPO-His (fusion protein of cat EPO and His tag) (from UniProt P33708 27-192) (ligand)”, in test [1], the EC50 (read off the curve), BaF3/mouse EPOR cell proliferation is 0.04 nM. The EC50 (read off the curve), BaF3/cat EPOR cell proliferation in test [2] was found to be 0.03 nM. The molecule “human EPO (PeproTech) (from UniProt P01588 28-193) (ligand)” displayed an EC50 (read off the curve), BaF3/cat EPOR cell proliferation in test [2] of 0.02 nM.

B1: wild-type mouse EPO-His (fusion protein of mouse EPO and His tag) (ligand)
chain: APPRLICDSRVLERYILEAKEAENVTMGCAEGPRLSENITVPDTKVNFYAWKRMEVEEQAIEVWQGLSLLSEAILQAQALLANSSQPPETLQLHIDKAISGLRSLTSLLRVLGAQKELMSPPDTTPPAPLRTLTVDTFCKLFRVYANFLRGKLKLYTGEVCRRGDRGAAHHHHHHHHH
Turning to B1, the EC50 (read off the curve), BaF3/mouse EPOR cell proliferation in test [1] is 0.05 nM.

B2: cat EPO-Fc (C165R cat EPO-siCFV3) of Examples 12 and 13 (Fc fusion, not shown: small tags and cut ends)
chain: APPRLICDSRVLERYILEAREAENVTMGCAEGCSFSENITVPDTKVNFYTWKRMDVGQQAVEVWQGLALLSEAILRGQALLANSSQPSETLQLHVDKAVSSLRSLTSLLRALGAQKEATSLPEATSAAPLRTFTVDTLRKLFRIYSNFLRGKLTLYTGEACRRGDRPPEMRRGPKIFIFPPKPKDTLSISRTPEVTCLVVDLGPDDSDVQITWFVDNTQVYTAKTSPREEQFNSTYRVVSVLPILHQDWLKGKEFKCKVNSKSLPSPIERTISKAKGQPHEPQVYVLPPAQEELSRNKVSVTCLIKSFHPPDIAVEWEITGQPEPENNYRTTPPQLDSDGTYFVYSKLSVDRSHWQRGNTYTCSVLHEALHAHHTRKELTQSPGK
In test [1], B2 returned an EC50 (read off the curve), BaF3/mouse EPOR cell proliferation of 0.05 nM. The EC50 (read off the curve), BaF3/cat EPOR cell proliferation in test [2] was determined as 0.02 nM.
